Square brackets hold non-standard residues; d marks the D form. Ends that are not written are not given here. Cit = NC(=O)NCCC[C@H](N)C(=O)O
Legend:
[1] = molecular target: T1, purified HLA-DRB1*0101 molecule (human); test: peptide competition assay, displacement of radio-labelled peptide probe from purified MHC class II
T1 construct: Purified MHC class II molecule
Description: (§1) Results are expressed as the inverse of the IC₅₀ values measured in nM.

[2] = molecular target: T2, purified HLA-DRB1*0404 molecule (human); test: as above
T2 construct: Purified MHC class II molecule
Description: as §1

[3] = molecular target: T3, purified HLA-DRB1*0401 molecule (human); test: as above
T3 construct: Purified MHC class II molecule
Description: as §1

[4] = molecular target: T4, purified HLA-DRB1*1101 molecule (human); test: peptide competition assay on purified MHC class II
T4 construct: Purified MHC class II molecule
Description: as §1

[5] = molecular target: T5, purified HLA-DRB1*1302 molecule (human); test: peptide competition assay on purified MHC class II
T5 construct: Purified MHC class II molecule
Description: as §1

[6] = molecular target: T6, purified HLA-DRB1*0301 molecule (human); test: peptide competition assay on purified MHC class II
T6 construct: Purified MHC class II molecule
Description: as §1

[7] = molecular target: T7, purified HLA-DRB1*0802 molecule (human); test: peptide competition assay on purified MHC class II
T7 construct: Purified MHC class II molecule
Description: as §1

Binder | fold higher affinity compared to the unmodified peptide (Vim 65-77) [1] | fold higher affinity compared to the unmodified peptide (Vim 65-77) [2] | fold higher affinity compared to the unmodified peptide (Vim 65-77) [3] | binding result [4] | binding result [5] | binding result [6] | binding result [7]
SAVRA[Cit]SSVPGVR (Synthetic peptide; also called Vimentin R70Cit; citrulline containing vimentin peptide) [Vim R70Cit, altered human vimentin peptide 65-77] | 100 fold | 20 fold | 90 fold | – | – | – | –
SAVRARSSVPGVR (Synthetic peptide (Genemed Synthesis); also called Vimentin 65-77; unmodified vimentin peptide) [Vim 65-77, human vimentin peptide 65-77] | – | – | – | binds | binds | binds | binds
